Assay results: patent US20230303708A1

Target: hBCMA-41BB-CD3 CAR (CAR-PMC750)
Assay: FACS of CAR-T cells stained with biotinylated goat anti-mouse F(ab)'2 and PE-streptavidin, day 9 of expansion

hBCMA-41BB-CD3 CAR (CAR-PMC750), sequence (chain, as listed by the source): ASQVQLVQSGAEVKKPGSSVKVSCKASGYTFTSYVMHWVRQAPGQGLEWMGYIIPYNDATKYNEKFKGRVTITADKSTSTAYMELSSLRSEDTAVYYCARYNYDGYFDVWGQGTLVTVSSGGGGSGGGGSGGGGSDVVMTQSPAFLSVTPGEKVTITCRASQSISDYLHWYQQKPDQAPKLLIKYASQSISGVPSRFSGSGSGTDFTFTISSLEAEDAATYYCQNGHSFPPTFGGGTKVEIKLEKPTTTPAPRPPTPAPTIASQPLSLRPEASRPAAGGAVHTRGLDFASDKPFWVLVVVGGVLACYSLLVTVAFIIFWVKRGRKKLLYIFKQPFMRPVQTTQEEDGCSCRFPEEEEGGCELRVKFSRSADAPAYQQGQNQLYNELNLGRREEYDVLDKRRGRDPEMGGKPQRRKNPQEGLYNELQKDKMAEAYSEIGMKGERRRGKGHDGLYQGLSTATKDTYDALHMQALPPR

biotin-conjugated goat anti-mouse F(ab)'2 (antibody)
percent CAR-positive cells: > 70%
